# Assay results from paper PMC4263744, “Single Arginine Mutation in Two Yeast Isocitrate Dehydrogenases: Biochemical Characterization and Functional Implication” (PLoS ONE, 2014).
# Positions count from the first letter of the chain named. Numbers in names are those of the source.
# B1: YlIDH (Yarrowia lipolytica CLIB122) (protein)
# chain: MSTTATRGLSTKIKVKNPIVELDGDEMTRIIWKSIKDKLILPYLDIDLKYYDLGIEYRDQTNDQVTIDAAEAIKKYQVGVKCATITPDEARVKEFGLKKMWLSPNGTIRNILGGTVFREPIVIPAVPRLVPGWKEPIIIGRHAHGDQYKAQDAVIPGAGELTLNFKPANGGDEQVIKVYTYDAPGVAMAMYNTDESITGFAYSSFNLALQKKLPLYMSTKNTILKKYDGRFKDIFQEIYDKEYKDKFDAAGIWYEHRLIDDMVAQMIKSKGGFIMALKNYDGDVQSDIVAQGFGSLGLMTSVLVTPDGKTFESEAAHGTVTRHYRQHQQGKETSTNSIASIFAWTRGLIQRGILDETPEVTKFAEALEKATVDTVDKDGIMTKDLALAGGKTDRSSYVLTEEFIDAVANRLKKDLA
# notes: 6xHis-tagged, pET-28b(+), E. coli Rosetta (DE3); forward primer encodes MSTTATR; 422 residues per subunit
# B2: YlIDH (Yarrowia lipolytica CLIB122; R141H) (protein)
# chain: B1 chain with R141H
# notes: as for B1
# B3: ScIDH1 (Saccharomyces cerevisiae S288C) (protein)
# chain: FSKIKVKQPVVELDGDEMTRIIWDKIKKKLILPYLDVDLKYYDLSVESRDATSDKITQDAAEAIKKYGVGIKCATITPDEARVKEFNLHKMWKSPNGTIRNILGGTVFREPIVIPRIPRLVPRWEKPIIIGRHAHGDQYKATDTLIPGPGSLELVYKPSDPTTAQPQTLKVYDYKGSGVAMAMYNTDESIEGFAHSSFKLAIDKKLNLFLSTKNTILKKYDGRFKDIFQEVYEAQYKSKFEQLGIHYEHRLIDDMVAQMIKSKGGFIMALKNYDGDVQSDIVAQGFGSLGLMTSILVTPDGKTFESEAAHGTVTRHYRKYQKGEETSTNSIASIFAWSRGLLKRGELDNTPALCKFANILESATLNTVQQDGIMTKDLALACGNNERSAYVTTEEFLDAVEKRLQKEIKSIE
# notes: 6xHis-tagged, pET-28b(+), E. coli Rosetta (DE3); transit peptide absent (forward primer encodes M-FSKIKVK); 419 residues per subunit
# B4: ScIDH1 (Saccharomyces cerevisiae S288C; R148A) (protein)
# chain: B3 chain with R132A
# notes: as for B3
# B5: ScIDH1 (Saccharomyces cerevisiae S288C; R148H) (protein)
# chain: B3 chain with R132H
# notes: as for B3
# Experiments:
# HcIDH [1] = target: T1, HcIDH (Homo sapiens, UniProt O75874, R132H); assay: NADPH consumption at […] nm; type: biochemical; settings: 2 mM MgCl2, 50 mM Tris-HCl pH 8.0, neomorphic reduction to 2-HG, read-out: α-KG / K m
# T1 construct: gene IDH1; synthetic gene, 6xHis-tagged, pET-28b(+), E. coli Rosetta (DE3); 420 residues per subunit
# T1 sequence (O75874 whole entry R132H): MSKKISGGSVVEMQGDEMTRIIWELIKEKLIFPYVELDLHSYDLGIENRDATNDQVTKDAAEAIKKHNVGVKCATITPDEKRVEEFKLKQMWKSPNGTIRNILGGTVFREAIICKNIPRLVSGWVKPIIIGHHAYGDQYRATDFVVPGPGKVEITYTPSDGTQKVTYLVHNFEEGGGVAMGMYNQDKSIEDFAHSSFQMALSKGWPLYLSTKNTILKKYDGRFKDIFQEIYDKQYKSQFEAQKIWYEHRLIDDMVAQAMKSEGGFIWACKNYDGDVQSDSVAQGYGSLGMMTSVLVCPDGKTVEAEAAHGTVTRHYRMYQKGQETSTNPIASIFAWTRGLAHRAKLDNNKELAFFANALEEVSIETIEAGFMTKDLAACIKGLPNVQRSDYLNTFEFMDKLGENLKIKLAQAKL
# HcIDH [2] = target: T2, HcIDH (Homo sapiens, UniProt O75874); assay: NADPH formation at […] nm, nonlinear regression; type: biochemical; settings: 0.5 mM NADP+, 2 mM MgCl2, 50 mM Tris-HCl pH 8.0, 25°C; apparent; as D-isocitrate; read-out: Isocitrate ^a / K m
# T2 construct: gene IDH1; synthetic gene, 6xHis-tagged, pET-28b(+), E. coli Rosetta (DE3); 420 residues per subunit
# T2 sequence (O75874 whole entry): as the sequence (O75874 whole entry R132H) above, with H132R counted along it
# HcIDH [3] = target: T1, HcIDH; assay: NADPH formation at […] nm, linear regression; type: biochemical; settings: 0.5 mM NADP+, 2 mM MgCl2, 50 mM Tris-HCl pH 8.0, 25°C; apparent; as D-isocitrate; read-out: Isocitrate ^a / K m
# purified protein [4] = substrate: O=C(O)C[C@H](C(=O)O)[C@@H](O)C(=O)O; assay: purified protein; type: biochemical, Yarrowia lipolytica; settings: 0.5 mM NADP+, 2 mM MgCl2, 50 mM Tris-HCl pH 8.0, 25°C, apparent, as D-isocitrate
# purified protein [5] = substrate: NC(=O)c1ccc[n+]([C@@H]2O[C@H](COP(=O)(O)OP(=O)(O)OC[C@H]3O[C@@H](n4cnc5c(N)ncnc54)[C@H](OP(=O)(O)O)[C@@H]3O)[C@@H](O)[C@H]2O)c1; assay: purified protein; type: biochemical, Yarrowia lipolytica; settings: isocitrate, MgCl2, 50 mM Tris-HCl pH 8.0, 25°C, varied: cofactor
# purified protein [6] = substrate: NC(=O)C1=CN([C@@H]2O[C@H](COP(=O)(O)OP(=O)(O)OC[C@H]3O[C@@H](n4cnc5c(N)ncnc54)[C@H](OP(=O)(O)O)[C@@H]3O)[C@@H](O)[C@H]2O)C=CC1; assay: purified protein; type: biochemical, Yarrowia lipolytica; settings: α-KG, 2 mM MgCl2, 50 mM Tris-HCl pH 8.0, neomorphic reduction, varied: cofactor
# purified protein [7] = substrate: O=C(O)CCC(=O)C(=O)O; assay: purified protein; type: biochemical, Yarrowia lipolytica; settings: NADPH, 2 mM MgCl2, 50 mM Tris-HCl pH 8.0, neomorphic reduction to 2-HG
# purified protein [8] = substrate: O=C(O)C[C@H](C(=O)O)[C@@H](O)C(=O)O; assay: purified protein; type: biochemical, Saccharomyces cerevisiae; settings: 0.5 mM NADP+, 2 mM MgCl2, 50 mM Tris-HCl pH 8.0, 25°C, apparent, as D-isocitrate
# purified protein [9] = substrate: NC(=O)c1ccc[n+]([C@@H]2O[C@H](COP(=O)(O)OP(=O)(O)OC[C@H]3O[C@@H](n4cnc5c(N)ncnc54)[C@H](OP(=O)(O)O)[C@@H]3O)[C@@H](O)[C@H]2O)c1; assay: purified protein; type: biochemical, Saccharomyces cerevisiae; settings: isocitrate, MgCl2, 50 mM Tris-HCl pH 8.0, 25°C, varied: cofactor
# purified protein [10] = substrate: NC(=O)C1=CN([C@@H]2O[C@H](COP(=O)(O)OP(=O)(O)OC[C@H]3O[C@@H](n4cnc5c(N)ncnc54)[C@H](OP(=O)(O)O)[C@@H]3O)[C@@H](O)[C@H]2O)C=CC1; assay: purified protein; type: biochemical, Saccharomyces cerevisiae; settings: α-KG, 2 mM MgCl2, 50 mM Tris-HCl pH 8.0, neomorphic reduction, varied: cofactor
# purified protein [11] = substrate: O=C(O)CCC(=O)C(=O)O; assay: purified protein; type: biochemical, Saccharomyces cerevisiae; settings: NADPH, 2 mM MgCl2, 50 mM Tris-HCl pH 8.0, neomorphic reduction to 2-HG
molecule,measurement,setting,value
O=C(O)CCC(=O)C(=O)O [α-KG],Km,HcIDH [1],157 ± 38.4 µM
O=C(O)C[C@H](C(=O)O)[C@@H](O)C(=O)O [isocitrate],Km,HcIDH [2],5.7 ± 1.4 µM
same,Km,HcIDH [3],2280 ± 195 µM
B1,Km,purified protein [4],11.7 ± 1.1 µM
same,kcat,purified protein [4],26.6 ± 0.87 s⁻¹
same,kcat/Km,purified protein [4],2.3e+06 M⁻¹ s⁻¹
same,Km,purified protein [5],4.1 ± 0.76 µM
B2,Km,purified protein [6],3.2 ± 0.43 µM
same,Km,purified protein [7],47.3 ± 4.2 µM
same,kcat,purified protein [7],0.43 ± 0.017 s⁻¹
same,kcat/Km,purified protein [7],9000 M⁻¹ s⁻¹
same,Km,purified protein [4],25.6 ± 2.3 µM
same,kcat,purified protein [4],0.14 ± 0.006 s⁻¹
same,kcat/Km,purified protein [4],5000 M⁻¹ s⁻¹
B3,Km,purified protein [8],10.5 ± 1.2 µM
same,kcat,purified protein [8],26.3 ± 0.09 s⁻¹
same,kcat/Km,purified protein [8],2.5e+06 M⁻¹ s⁻¹
same,Km,purified protein [9],17.4 ± 2.01 µM
B4,Km,purified protein [8],2263.1 ± 177.3 µM
same,kcat,purified protein [8],12.4 ± 5.31 s⁻¹
same,kcat/Km,purified protein [8],5000 M⁻¹ s⁻¹
B5,Km,purified protein [10],5.9 ± 0.51 µM
same,Km,purified protein [11],30.0 ± 1.76 µM
same,kcat,purified protein [11],0.34 ± 0.009 s⁻¹
same,kcat/Km,purified protein [11],11000 M⁻¹ s⁻¹
same,Km,purified protein [8],24.8 ± 3.2 µM
same,kcat,purified protein [8],0.27 ± 0.015 s⁻¹
same,kcat/Km,purified protein [8],11000 M⁻¹ s⁻¹
